Assay results published in paper PMC4883682, “STIM1 activation is regulated by a 14 amino acid sequence adjacent to the CRAC activation domain” (AIMS biophysics, 2016).

B1: STIM1(del302-462)-mApple (natural protein, human, UniProt Q13586 23-685, looked up)
chain: LSHSHSEKATGTSSGANSEESTAAEFCRIDKPLCHSEDEKLSFEAVRNIHKLMDDDANGDVDVEESDEFLREDLNYHDPTVKHSTFHGEDKLISVEDLWKAWKSSEVYNWTVDEVVQWLITYVELPQYEETFRKLQLSGHAMPRLAVTNTTMTGTVLKMTDRSHRQKLQLKALDTVLFGPPLLTRHNHLKDFMLVVSIVIGVGGCWFAYIQNRYSKEHMKKMMKDLEGLHRAEQSLHDLQERLHKAQEEHRTVEVEKVHLEKKLRDEINLAKQEAQRLKSTRPNPAHFIMTDDVDDMDEEIVSPLSMQSPSLQSSVRQRLTEPQHGLGSQRDLTHSDSESSLHMSDRQRVAPKPPQMSRAADEALNAMTSNGSHRLIEGVHPGSLVEKLPDSPALAKKALLALNHGLDKAHSLMELSPSAPPGGSPHLDSSRSHSPSSPDPDTPSPVGDSRALQASRNTRIPHLAGKKAVAEEDNGSIGEETDSSPGRKKFPLKIFKKPLKK
notes: signal peptide in the construct; source: COS7 cells, transiently transfected (Lipofectamine 2000), in live cells; not shown: mApple, C-terminal, kept
B2: STIM1(del344-448)-mApple (natural protein, human, UniProt Q13586 23-685, looked up)
chain: LSHSHSEKATGTSSGANSEESTAAEFCRIDKPLCHSEDEKLSFEAVRNIHKLMDDDANGDVDVEESDEFLREDLNYHDPTVKHSTFHGEDKLISVEDLWKAWKSSEVYNWTVDEVVQWLITYVELPQYEETFRKLQLSGHAMPRLAVTNTTMTGTVLKMTDRSHRQKLQLKALDTVLFGPPLLTRHNHLKDFMLVVSIVIGVGGCWFAYIQNRYSKEHMKKMMKDLEGLHRAEQSLHDLQERLHKAQEEHRTVEVEKVHLEKKLRDEINLAKQEAQRLKELREGTENERSRQKYAEEELEQVREALRKAEKELESHSSWYASLVAALNIDPSWMGSTRPNPAHFIMTDDVDDMDEEIVSPLSMQSPSLQSSVRQRLTEPQHGLGSQRDLTHSDSESSLHMSDRQRVAPKPPQMSRAADEALNAMTSNGSHRLIEGVHPGSLVEKLPDSPALAKKALLALNHGLDKAHSLMELSPSAPPGGSPHLDSSRSHSPSSPDPDTPSPVGDSRALQASRNTRIPHLAGKKAVAEEDNGSIGEETDSSPGRKKFPLKIFKKPLKK
notes: as for B1

Target: the molecule itself
Test: cross-linking; chemical crosslinking with dithiobis(succinymidyl propionate); constructs separately expressed; unstimulated state (Supplemental Figure S2)

Protein | stoichiometry N
B1 | 2
B2 | 2
